Ca2+ signalling assay in HEK293T cells, EC50 data for three substances are collected here from PMC8844075, “Structural basis of neuropeptide Y signaling through Y1 receptor” (Nature Communications, 2022).

Chain of Y1R-eYFP (wild-type Y1R) (human) (P25929 whole entry): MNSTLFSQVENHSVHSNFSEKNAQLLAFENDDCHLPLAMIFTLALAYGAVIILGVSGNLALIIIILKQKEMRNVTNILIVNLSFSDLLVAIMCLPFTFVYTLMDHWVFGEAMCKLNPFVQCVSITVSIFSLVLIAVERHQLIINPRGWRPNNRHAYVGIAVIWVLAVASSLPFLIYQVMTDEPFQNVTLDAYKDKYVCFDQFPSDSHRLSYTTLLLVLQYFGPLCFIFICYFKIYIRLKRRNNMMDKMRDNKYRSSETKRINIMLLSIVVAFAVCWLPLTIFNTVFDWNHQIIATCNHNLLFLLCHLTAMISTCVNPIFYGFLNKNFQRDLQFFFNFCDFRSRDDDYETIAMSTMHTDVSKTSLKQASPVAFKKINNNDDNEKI
Chain of peptide YY (PYY) (P10082 29-64): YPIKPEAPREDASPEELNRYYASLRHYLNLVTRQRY
Chain of PYY(3–36) (P10082 31-64): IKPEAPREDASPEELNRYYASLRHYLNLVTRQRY

The experiment addresses Y1R-eYFP (wild-type Y1R) (human) (UniProt P25929).
In turn, “NPY(3–36) (from UniProt P01303 31-64) (peptide)” came in with a Ca2+ signalling assay in HEK293T cells, EC50 of 86 nM.
“PYY(3–36) (from UniProt P10082 31-64) (peptide)”: the Ca2+ signalling assay in HEK293T cells, EC50 is 77 nM.
In the case of “peptide YY (PYY) (from UniProt P10082 29-64)” it was 6.1 nM.
